According to patent publication US20080076731A1 (UNIVERSITY OF SOUTH FLORIDA, published 2008):

Biological target: T1, SH2-containing inositol-5-phosphatase (SHIP), mouse, endogenous protein in NK cell lysates (mouse, UniProt Q9ES52 1-1191, limits assumed)
T1 construct: Endogenous protein co-immunoprecipitated from NK-enriched C57BL6/J splenocyte lysates (modified RIPA buffer) and detected by Western blot with anti-SHIP P2C6; also called SH2-containing Inositol Polyphosphatase; 135/145 kD SHIP isoforms
T1 sequence (looked up): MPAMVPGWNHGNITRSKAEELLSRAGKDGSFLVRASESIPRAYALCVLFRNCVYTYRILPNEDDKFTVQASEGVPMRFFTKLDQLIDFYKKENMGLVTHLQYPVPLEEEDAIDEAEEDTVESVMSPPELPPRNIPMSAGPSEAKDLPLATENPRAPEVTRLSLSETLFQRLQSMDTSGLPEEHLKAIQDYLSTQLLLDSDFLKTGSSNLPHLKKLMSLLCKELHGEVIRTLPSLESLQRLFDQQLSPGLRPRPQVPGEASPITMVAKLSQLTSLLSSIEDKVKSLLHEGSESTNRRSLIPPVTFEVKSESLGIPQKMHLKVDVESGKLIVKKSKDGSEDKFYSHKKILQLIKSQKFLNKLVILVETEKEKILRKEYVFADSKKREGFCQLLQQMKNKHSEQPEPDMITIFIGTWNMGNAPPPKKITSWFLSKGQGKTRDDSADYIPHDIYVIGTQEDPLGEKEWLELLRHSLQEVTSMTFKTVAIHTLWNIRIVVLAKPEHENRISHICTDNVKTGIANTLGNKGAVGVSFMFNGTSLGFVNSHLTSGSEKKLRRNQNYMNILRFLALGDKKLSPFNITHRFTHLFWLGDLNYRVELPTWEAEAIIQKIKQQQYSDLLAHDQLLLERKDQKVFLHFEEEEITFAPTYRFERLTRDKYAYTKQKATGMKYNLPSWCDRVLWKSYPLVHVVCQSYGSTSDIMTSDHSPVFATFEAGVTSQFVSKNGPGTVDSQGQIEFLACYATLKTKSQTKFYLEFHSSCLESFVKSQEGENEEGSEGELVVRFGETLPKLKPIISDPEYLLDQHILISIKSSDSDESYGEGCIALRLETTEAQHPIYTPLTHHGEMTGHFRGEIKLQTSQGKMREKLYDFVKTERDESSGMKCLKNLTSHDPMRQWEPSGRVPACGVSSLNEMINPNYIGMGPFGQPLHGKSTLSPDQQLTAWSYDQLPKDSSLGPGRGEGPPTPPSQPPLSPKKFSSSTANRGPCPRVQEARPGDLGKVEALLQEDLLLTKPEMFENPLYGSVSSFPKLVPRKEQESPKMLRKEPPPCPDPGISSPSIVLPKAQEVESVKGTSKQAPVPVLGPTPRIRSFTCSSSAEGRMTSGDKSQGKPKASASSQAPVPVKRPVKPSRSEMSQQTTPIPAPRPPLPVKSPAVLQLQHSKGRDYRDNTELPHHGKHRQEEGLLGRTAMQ
Assay: co-immunoprecipitation from NK-enriched splenocyte lysates, Western blot with anti-SHIP P2C6
Source text: Equal quantities of protein from cells lysates prepared from SHIP^{+/+} and SHIP^{-/-} NK cells are resolved on a 4-12% Tris-Bis polyacrylamide gel (Invitrogen), transferred to a nitrocellulose membrane (Amersham) and the filters probed with an anti-Akt-P(Threo) antibody (Cell Signaling) at a 1:1000 dilution. […] The blot is then stripped and reprobed in a similar manner using an anti-β-actin antibody (Cell Signaling) as an internal control for protein loading.
Thus, in FIG. 5, SHIP is shown to be recruited to NK inhibitory receptors and to oppose Akt activation in vivo. […] A mock immunoprecipitation of the NK lysates with an IgG2a antibody is analyzed in parallel as a negative control. The results of these immunoprecipitations are representative of two independent analyses of NK-enriched splenocytes. […] Immunoprecipitation of SHIP from NK cell lysates serves as positive control in both (A) and (B). In (A) a one-tenth exposure of the SHIP lane enables the 135/145 kD SHIP isoforms to be distinguished clearly. […] To control for the amount of cell lysate loaded in each sample, the Akt-P blot is stripped and re-probed with an antibody specific for β-actin, GAPDH, and cc tubulin. […] Immunoprecipitation with a murine IgG2a antibody (IgG2a) is analyzed as a negative control and SHIP is immunoprecipitated as a positive control. […]

- binding result: no binding
B1: Ly49G2, mouse NK inhibitory receptor (receptor, UniProt Q60654-2 1-267, looked up)
chain: MSEQEVTYSTVRFHESSRLQKLVRTEEPQRPREACYREYSVPWKLIVIACGILCFLLLVTVALLAITIFQHSQQKHELQETLNCHDNCSPTQSDVNLKDELLRNKSIECRPGNDLLESLSRDQNRWYSETKTFSDSSQHTGRGFEKYWFCYGIKCYYFNMDRKTWSGCKQTCQISSLSLLKIDNEDELKFLQNLAPSDISWIGLSYDNKKKDWVWIDNGPSKLALNTTKYNIRDGLCMSLSKTRLDNGDCDKSYICICGKRLDKFPH
notes: Immunoprecipitated with anti-Ly49G2 (4D11)
